Source: FireProtDB (doi:10.1021/bi00179a018)

Details: Bacillus amyloliquefaciens, Thermal, DSC, Potassium acetate 50 mM, reversible: yes, whole UniProt chain shown; for unfolding free energy: 25 °C

B1: Ribonuclease wild type, P00648 (protein)
chain: MMKMEGIALKKRLSWISVCLLVLVSAAGMLFSTAAKTETSSHKAHTEAQVINTFDGVADYLQTYHKLPDNYITKSEAQALGWVASKGNLADVAPGKSIGGDIFSNREGKLPGKSGRTWREADINYTSGFRNSDRILYSSDWLIYKTTDHYQTFTKIR
With B1 as the protein, how does the Tm (pH 2) read?
Its Tm is 24 °C.

What about the “unfolding enthalpy (calorimetric)” value (pH 2) of the same protein?
Its value is 82.5 kcal/mol.

What about the Tm (pH 2.5) of the same protein?
Its Tm is 31.6 °C.

What about the “unfolding enthalpy (calorimetric)” value (pH 2.5) of the same protein?
Its value is 94.3 kcal/mol.

And the unfolding free energy (pH 3)?
The unfolding free energy was 4.4 kcal/mol.

And the unfolding free energy (pH 3.5)?
Its unfolding free energy is 6.79 kcal/mol.

What about the Tm (pH 3.5) of the same protein?
Its Tm is 46.7 °C.

What about the “unfolding enthalpy (calorimetric)” value (pH 3.5) of the same protein?
Its value is 119 kcal/mol.

What about the unfolding free energy (pH 4) of the same protein?
Its unfolding free energy is 8.13 kcal/mol.

And the Tm (pH 4)?
Its Tm is 50.5 °C.

And the “unfolding enthalpy (calorimetric)” value (pH 4)?
Its value is 125 kcal/mol.

And the unfolding free energy (pH 4.5)?
Its unfolding free energy is 9.02 kcal/mol.

And the Tm (pH 4.5)?
The Tm was 53 °C.

And the “unfolding enthalpy (calorimetric)” value (pH 4.5)?
The value was 129 kcal/mol.

And the unfolding free energy (pH 5)?
The unfolding free energy was 9.35 kcal/mol.

And the Tm (pH 5)?
Its Tm is 53.9 °C.

What about the “unfolding enthalpy (calorimetric)” value (pH 5) of the same protein?
Its value is 131 kcal/mol.
